Test results reported in the supplement of paper PMC9112550, “Optimization of the antimicrobial peptide Bac7 by deep mutational scanning” (BMC Biology, 2022).

system: Escherichia coli TOP10; experiment: shrunken log2 fold change of peptide-encoding DNA abundance (4.5 h post-induction vs induction); higher = less antimicrobial activity (less host growth inhibition); conditions: time post-induction: 4.5 h; library: site-saturation at positions 5, 18, 19, 20
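Also: peptides expressed intracellularly from a pBAD plasmid library in pooled LB shake-flask culture, induced with 0.3% L-arabinose, DNA abundance read by NGS, three biological replicates, DESeq2 with apeglm shrinkage.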

Question: With RRIRLRPPRLPRPRPRPTWQPRP as the sequence, how does the “shrunken log2 fold change” value read?
Answer: 0.187

Question: Which “shrunken log2 fold change” value does the source give for RRIRYRPPRLPRPRPRPLMGPRP here?
Answer: -0.0741

Question: Which “shrunken log2 fold change” value does the source give for RRIRLRPPRLPRPRPRPHMGPRP here?
Answer: -0.386

Question: How did the “shrunken log2 fold change” value turn out when RRIRARPPRLPRPRPRPFRRPRP was run?
Answer: -0.0278

Question: RRIRLRPPRLPRPRPRPQEFPRP was tested. Which “shrunken log2 fold change” value did it give?
Answer: 0.00998

Question: For RRIRNRPPRLPRPRPRPERLPRP, which “shrunken log2 fold change” value is on record?
Answer: 0.0695

Question: How did the “shrunken log2 fold change” value turn out when RRIRCRPPRLPRPRPRPQLRPRP was run?
Answer: -0.127

Question: RRIRWRPPRLPRPRPRPPFTPRP was tested. Which “shrunken log2 fold change” value did it give?
Answer: 0.21

Question: Which “shrunken log2 fold change” value does the source give for RRIRIRPPRLPRPRPRPGVMPRP here?
Answer: -0.346

Question: Which “shrunken log2 fold change” value does the source give for RRIRNRPPRLPRPRPRPKVWPRP here?
Answer: 0.68

Question: How did the “shrunken log2 fold change” value turn out when RRIRHRPPRLPRPRPRPPYQPRP was run?
Answer: -0.028

Question: Which “shrunken log2 fold change” value does the source give for RRIRSRPPRLPRPRPRPPPYPRP here?
Answer: 0.337

Question: With RRIRLRPPRLPRPRPRPQQRPRP as the sequence, how does the “shrunken log2 fold change” value read?
Answer: -0.299

Question: Which “shrunken log2 fold change” value does the source give for RRIRKRPPRLPRPRPRPAPLPRP here?
Answer: 0.929

Question: For RRIRCRPPRLPRPRPRPQMCPRP, which “shrunken log2 fold change” value is on record?
Answer: -0.157

Question: Which “shrunken log2 fold change” value does the source give for RRIRIRPPRLPRPRPRPTDWPRP here?
Answer: 0.0724

Question: For RRIRMRPPRLPRPRPRPEIYPRP, which “shrunken log2 fold change” value is on record?
Answer: 0.106

Question: For RRIRVRPPRLPRPRPRPNFVPRP, which “shrunken log2 fold change” value is on record?
Answer: -0.491

Question: How did the “shrunken log2 fold change” value turn out when RRIRYRPPRLPRPRPRPNQVPRP was run?
Answer: -0.0141

Question: With RRIRGRPPRLPRPRPRPHYHPRP as the sequence, how does the “shrunken log2 fold change” value read?
Answer: -0.421

Question: With RRIRYRPPRLPRPRPRPQRLPRP as the sequence, how does the “shrunken log2 fold change” value read?
Answer: -0.131

Question: With RRIRYRPPRLPRPRPRPETRPRP as the sequence, how does the “shrunken log2 fold change” value read?
Answer: 0.0147

Question: With RRIRFRPPRLPRPRPRPHPMPRP as the sequence, how does the “shrunken log2 fold change” value read?
Answer: -0.367

Question: How did the “shrunken log2 fold change” value turn out when RRIRFRPPRLPRPRPRPCITPRP was run?
Answer: -0.709

Question: With RRIRRRPPRLPRPRPRPGRHPRP as the sequence, how does the “shrunken log2 fold change” value read?
Answer: 0.212

Question: With RRIRYRPPRLPRPRPRPNPCPRP as the sequence, how does the “shrunken log2 fold change” value read?
Answer: -0.0242

Question: Which “shrunken log2 fold change” value does the source give for RRIRPRPPRLPRPRPRPPMWPRP here?
Answer: 0.412

Question: How did the “shrunken log2 fold change” value turn out when RRIRKRPPRLPRPRPRPFCGPRP was run?
Answer: 0.345

Question: Which “shrunken log2 fold change” value does the source give for RRIRFRPPRLPRPRPRPMGLPRP here?
Answer: -0.00847

Question: With RRIRSRPPRLPRPRPRPQRRPRP as the sequence, how does the “shrunken log2 fold change” value read?
Answer: 0.21

Question: With RRIRWRPPRLPRPRPRPLRIPRP as the sequence, how does the “shrunken log2 fold change” value read?
Answer: 0.148

Question: Which “shrunken log2 fold change” value does the source give for RRIRWRPPRLPRPRPRPGGFPRP here?
Answer: 0.664

Question: With RRIRNRPPRLPRPRPRPRNTPRP as the sequence, how does the “shrunken log2 fold change” value read?
Answer: -0.505

Question: RRIRKRPPRLPRPRPRPERIPRP was tested. Which “shrunken log2 fold change” value did it give?
Answer: 0.00934

Question: For RRIRARPPRLPRPRPRPPLVPRP, which “shrunken log2 fold change” value is on record?
Answer: 0.626

Question: RRIRIRPPRLPRPRPRPQGLPRP was tested. Which “shrunken log2 fold change” value did it give?
Answer: 0.0413

Question: For RRIRPRPPRLPRPRPRPWEVPRP, which “shrunken log2 fold change” value is on record?
Answer: -0.0677

Question: How did the “shrunken log2 fold change” value turn out when RRIRVRPPRLPRPRPRPLWWPRP was run?
Answer: 0.855

Question: RRIRSRPPRLPRPRPRPVPCPRP was tested. Which “shrunken log2 fold change” value did it give?
Answer: -0.226

Question: With RRIRSRPPRLPRPRPRPVPWPRP as the sequence, how does the “shrunken log2 fold change” value read?
Answer: 0.212

Question: How did the “shrunken log2 fold change” value turn out when RRIRARPPRLPRPRPRPALCPRP was run?
Answer: 0.637

Question: With RRIRMRPPRLPRPRPRPLAQPRP as the sequence, how does the “shrunken log2 fold change” value read?
Answer: 0.634

Question: Which “shrunken log2 fold change” value does the source give for RRIRFRPPRLPRPRPRPSWLPRP here?
Answer: 0.156

Question: For RRIRFRPPRLPRPRPRPWSIPRP, which “shrunken log2 fold change” value is on record?
Answer: -0.0103

Question: With RRIRIRPPRLPRPRPRPQESPRP as the sequence, how does the “shrunken log2 fold change” value read?
Answer: -0.617

Question: For RRIRARPPRLPRPRPRPIWTPRP, which “shrunken log2 fold change” value is on record?
Answer: -0.144

Question: Which “shrunken log2 fold change” value does the source give for RRIRGRPPRLPRPRPRPMTNPRP here?
Answer: 0.835

Question: Which “shrunken log2 fold change” value does the source give for RRIRMRPPRLPRPRPRPLLHPRP here?
Answer: 0.228

Question: With RRIRDRPPRLPRPRPRPTPAPRP as the sequence, how does the “shrunken log2 fold change” value read?
Answer: 0.551

Question: How did the “shrunken log2 fold change” value turn out when RRIRPRPPRLPRPRPRPQIPPRP was run?
Answer: -0.0392

Question: With RRIRTRPPRLPRPRPRPTDKPRP as the sequence, how does the “shrunken log2 fold change” value read?
Answer: -0.55

Question: For RRIRRRPPRLPRPRPRPDSCPRP, which “shrunken log2 fold change” value is on record?
Answer: -0.00351

Question: How did the “shrunken log2 fold change” value turn out when RRIRHRPPRLPRPRPRPIPVPRP was run?
Answer: -0.037

Question: RRIRDRPPRLPRPRPRPVYQPRP was tested. Which “shrunken log2 fold change” value did it give?
Answer: -0.263

Question: Which “shrunken log2 fold change” value does the source give for RRIRFRPPRLPRPRPRPRPLPRP here?
Answer: 0.406

Question: With RRIRHRPPRLPRPRPRPWPVPRP as the sequence, how does the “shrunken log2 fold change” value read?
Answer: 0.155

Question: RRIRVRPPRLPRPRPRPTLMPRP was tested. Which “shrunken log2 fold change” value did it give?
Answer: 0.169

Question: Which “shrunken log2 fold change” value does the source give for RRIRIRPPRLPRPRPRPFSMPRP here?
Answer: -0.0858

Question: RRIRQRPPRLPRPRPRPLFVPRP was tested. Which “shrunken log2 fold change” value did it give?
Answer: -0.495

Question: RRIRKRPPRLPRPRPRPREIPRP was tested. Which “shrunken log2 fold change” value did it give?
Answer: 0.736

Question: With RRIRERPPRLPRPRPRPFMMPRP as the sequence, how does the “shrunken log2 fold change” value read?
Answer: -0.584

Question: RRIRDRPPRLPRPRPRPIATPRP was tested. Which “shrunken log2 fold change” value did it give?
Answer: -0.0393

Question: For RRIRGRPPRLPRPRPRPHPLPRP, which “shrunken log2 fold change” value is on record?
Answer: 0.101

Question: RRIRQRPPRLPRPRPRPRGEPRP was tested. Which “shrunken log2 fold change” value did it give?
Answer: 0.348

Question: How did the “shrunken log2 fold change” value turn out when RRIRGRPPRLPRPRPRPHWMPRP was run?
Answer: 0.0496

Question: RRIRPRPPRLPRPRPRPPLKPRP was tested. Which “shrunken log2 fold change” value did it give?
Answer: 0.441

Question: RRIRCRPPRLPRPRPRPCEEPRP was tested. Which “shrunken log2 fold change” value did it give?
Answer: 0.207

Question: RRIRTRPPRLPRPRPRPQTGPRP was tested. Which “shrunken log2 fold change” value did it give?
Answer: -0.128

Question: How did the “shrunken log2 fold change” value turn out when RRIRTRPPRLPRPRPRPWHTPRP was run?
Answer: -0.0217

Question: Which “shrunken log2 fold change” value does the source give for RRIRSRPPRLPRPRPRPFALPRP here?
Answer: -0.0971

Question: With RRIRMRPPRLPRPRPRPEAPPRP as the sequence, how does the “shrunken log2 fold change” value read?
Answer: 3.4

Question: For RRIRARPPRLPRPRPRPQIKPRP, which “shrunken log2 fold change” value is on record?
Answer: 0.048

Question: RRIRMRPPRLPRPRPRPTQNPRP was tested. Which “shrunken log2 fold change” value did it give?
Answer: 1.18

Question: With RRIRVRPPRLPRPRPRPKGWPRP as the sequence, how does the “shrunken log2 fold change” value read?
Answer: 0.684

Question: RRIRGRPPRLPRPRPRPDVLPRP was tested. Which “shrunken log2 fold change” value did it give?
Answer: 0.246
